Reference: the Immune Epitope Database (IEDB)

Key:
[1] = biological target: HLA-A*30:02; assay: IEDB peptide-MHC binding, purified MHC/competitive/radioactivity; filed as Kd, often an IC50 or EC50 that approximates it; ≥ and ≤ were set here for values at or beyond the usual limits of such assays
[2] = biological target: HLA-A*02:01; assay: IEDB peptide-MHC binding, purified MHC/direct/fluorescence; filed as Kd, often an IC50 or EC50 that approximates it; ≥ and ≤ were set here for values at or beyond the usual limits of such assays
[3] = biological target: HLA-A*30:01; assay: IEDB peptide-MHC binding, purified MHC/competitive/radioactivity; filed as Kd, often an IC50 or EC50 that approximates it; ≥ and ≤ were set here for values at or beyond the usual limits of such assays
[4] = biological target: HLA-A*69:01; assay: IEDB peptide-MHC binding, purified MHC/direct/fluorescence; filed as Kd, often an IC50 or EC50 that approximates it; ≥ and ≤ were set here for values at or beyond the usual limits of such assays
[5] = biological target: HLA-A*24:02; assay: IEDB peptide-MHC binding, purified MHC/competitive/radioactivity; filed as Kd, often an IC50 or EC50 that approximates it; ≥ and ≤ were set here for values at or beyond the usual limits of such assays
[6] = biological target: HLA-A*29:02; assay: as above
[7] = biological target: HLA-A*23:01; assay: as above
[8] = biological target: HLA-A*26:01; assay: as above
[9] = biological target: HLA-A*03:01; assay: IEDB peptide-MHC binding, purified MHC/direct/fluorescence; filed as Kd, often an IC50 or EC50 that approximates it; ≥ and ≤ were set here for values at or beyond the usual limits of such assays
[10] = biological target: HLA-A*01:01; assay: IEDB peptide-MHC binding, purified MHC/competitive/radioactivity; filed as Kd, often an IC50 or EC50 that approximates it; ≥ and ≤ were set here for values at or beyond the usual limits of such assays
[11] = biological target: HLA-A*02:06; assay: as above
[12] = biological target: HLA-B*44:02; assay: as above
[13] = biological target: HLA-A*02:02; assay: as above; settings: source organism: SARS coronavirus Tor2
[14] = biological target: HLA-A*02:03; assay: as above; settings: source organism: SARS coronavirus Tor2
[15] = biological target: HLA-A*01:01; assay: IEDB peptide-MHC binding, purified MHC/direct/fluorescence; filed as Kd, often an IC50 or EC50 that approximates it; ≥ and ≤ were set here for values at or beyond the usual limits of such assays; settings: source organism: Giardia lamblia ATCC 50803
[16] = source organism: Dengue virus 4 Philippines/H241/1956
[17] = source organism: Dengue virus 2 Jamaica/1409/1983
[18] = source organism: Dengue virus 3 Martinique/1243/1999
[19] = source organism: Salmonella enterica subsp. enterica serovar Paratyphi A
[20] = source organism: Vaccinia virus WR
[21] = source organism: Dengue virus 4 Dominica/814669/1981
[22] = source organism: Lymphocytic choriomeningitis virus (strain Armstrong)
[23] = source organism: Encephalitozoon cuniculi
[24] = source organism: Dengue virus 1 Brazil/97-11/1997
[25] = source organism: Serratia proteamaculans
[26] = source organism: Mammarenavirus guanaritoense

AGGLLLAAY
Kd [1, 16]: 59.7 nM

AGPVSQHNY
Kd [1, 17]: 23.2 nM

ALPPPPPPP
Kd ([2]; source organism: Homo sapiens): 12700 nM

ALTLATGPIT
Kd [3, 18]: 159 nM

AQLPRWVAT
Kd [4, 19]: 7000 nM
Kd [2, 19]: 19900 nM

AWNSLEVEDY
Kd [1, 17]: 613 nM

CSRCLSLFY
Kd [3, 20]: 22.1 nM

DFGSVGGLF
Kd [5, 21]: 2640 nM

DYFESFSSFF
Kd [5, 22]: 11 nM
Kd [6, 22]: 0.356 nM
Kd [7, 22]: 4.72 nM

EISNMLNIM
Kd ([8]; source organism: Dengue virus 1 Singapore/S275/1990): 476 nM

EISNMLSII
Kd [8, 18]: 3370 nM

EKMEALQRKY
Kd ([8]; source organism: Dengue virus 2 16681-PDK53): 6380 nM

EKTQAIDGEF
Kd [8, 21]: ≥ 69700 nM

EVEDYGFGM
Kd [8, 16]: 3900 nM

FMFGPTIYY
Kd ([9]; source organism: Entamoeba histolytica HM-1:IMSS): 43 nM

FMRSISDDA
Kd [4, 23]: ≥ 20000 nM
Kd [2, 23]: 168 nM

FTDENKWKS
Kd [10, 17]: 5260 nM

FTDPASIAA
Kd [11, 17]: 32.6 nM
Kd [10, 17]: 7.26 nM

GAKIIHRYA
Kd [3, 20]: 118 nM

GDNALKINW
Kd [12, 18]: 150 nM

GGMLVRNPLS
Kd [3, 24]: 4270 nM

GLMWLSYFV
Kd [13]: 0.199 nM
Kd ([11]; source organism: SARS coronavirus Tor2): 0.975 nM
Kd [14]: 0.82 nM
Kd ([4]; source organism: SARS-CoV1): 347 nM
Kd ([9]; source organism: SARS-CoV1): ≥ 33000 nM
Kd ([2]; source organism: SARS-CoV1): 3190 nM

GMPNWCVSI
Kd [4, 25]: 3410 nM
Kd [2, 25]: 24.7 nM

GVYPMSIPAT
Kd [3, 24]: 10400 nM

GYISTRVEM
Kd [7, 17]: 1140 nM

HEMYWISNG
Kd [12, 18]: 495 nM

HLRDQSIKI
Kd [3, 20]: 15.2 nM

HQYPANLFY
Kd [3, 20]: 50.8 nM

HVFQEYRLK
Kd [3, 20]: 26.6 nM

HWPKSHTLW
Kd [5, 17]: 1170 nM

INRFTMKHK
Kd [3, 17]: 7950 nM

ITDFVGKTV
Kd ([10]; source organism: Dengue virus 3 Singapore/8120/1995): ≥ 39700 nM

ITTATRCPTQ
Kd [3, 16]: 9440 nM

KARCNHLTK
Kd [3, 20]: 0.214 nM

KARNTPFNM
Kd ([3]; source organism: Dengue virus 2 Peru/IQT2913/1996): 169 nM

KEMAETQHG
Kd [12, 16]: 143 nM

KFKLTLPNK
Kd [3, 20]: 12.1 nM

KMYEYVFKG
Kd [4, 23]: ≥ 20000 nM
Kd [2, 23]: 40.4 nM

KTIWEIPQK
Kd [3, 20]: 11.8 nM

KVDWNQFTY
Kd [15]: 2 nM

KVKNHIPNI
Kd [3, 20]: 0.684 nM

KVRSNAAIG
Kd [3, 24]: 13.6 nM

KVSCTILAA
Kd [3, 17]: 67.7 nM

LCLIPTAMAF
Kd [7, 16]: 1080 nM

LFHAFFGAL
Kd [5, 26]: ≥ 31900 nM
Kd [6, 26]: 3650 nM
Kd [7, 26]: 12500 nM
